# Target: P. berghei SPECT1Δ41 (amino acids 42-241) (P. berghei)
# Test: SEC-MALS; TSK-Gel G3000 SWxl column with multiangle static light scattering; 150 mM NaCl, 50 mM Tris or HEPES, pH 7.4; monomer and dimer fractions run separately; the two species are stable over days
substance,measurement,value
P. berghei SPECT1Δ41 (amino acids 42-241) (domain or fragment),stoichiometry N,2
